Measurements published in patent US10941182 (Amgen, dated 2021).
Starred links: 1 amine or outer side, 2 acyl side, 3 side chain; linkers in the order of their positions; H or OH if unused. Non-standard residues stand in square brackets, D forms with d. rCha = cyclohexylalanine with ψ(CH2NH) reduced amide bond, C1CCC(C[C@@H](C[*:2])N[*:1])CC1; rLys = lysine with ψ(CH2NH) reduced amide bond, C(CC[C@@H](C[*:2])N[*:1])CN[*:3]; DrSer = D-serine with ψ(CH2NH) reduced amide bond, C(O[*:3])[C@H](C[*:2])N[*:1]; rSer = serine with ψ(CH2NH) reduced amide bond, C(O[*:3])[C@@H](C[*:2])N[*:1]; dBip = N[C@H](Cc1ccc(-c2ccccc2)cc1)C(=O)O; Oic = O=C(O)[C@@H]1C[C@@H]2CCCC[C@@H]2N1; Phe(4-Cl) = N[C@@H](Cc1ccc(Cl)cc1)C(=O)O; dPhe(4-Cl) = N[C@H](Cc1ccc(Cl)cc1)C(=O)O; Phe(4-I) = N[C@@H](Cc1ccc(I)cc1)C(=O)O; 2Nal = N[C@@H](Cc1ccc2ccccc2c1)C(=O)O; d1Nal = N[C@H](Cc1cccc2ccccc12)C(=O)O; NMeR = CN[C@@H](CCCNC(=N)N)C(=O)O; hArg = N=C(N)NCCCC[C@H](N)C(=O)O; Cha = N[C@@H](CC1CCCCC1)C(=O)O; NMeL = CN[C@@H](CC(C)C)C(=O)O; Nle = CCCC[C@H](N)C(=O)O; Orn = NCCC[C@H](N)C(=O)O

T1: rat APJ receptor (rat, UniProt Q9JHG3 1-377)
T1 sequence (looked up): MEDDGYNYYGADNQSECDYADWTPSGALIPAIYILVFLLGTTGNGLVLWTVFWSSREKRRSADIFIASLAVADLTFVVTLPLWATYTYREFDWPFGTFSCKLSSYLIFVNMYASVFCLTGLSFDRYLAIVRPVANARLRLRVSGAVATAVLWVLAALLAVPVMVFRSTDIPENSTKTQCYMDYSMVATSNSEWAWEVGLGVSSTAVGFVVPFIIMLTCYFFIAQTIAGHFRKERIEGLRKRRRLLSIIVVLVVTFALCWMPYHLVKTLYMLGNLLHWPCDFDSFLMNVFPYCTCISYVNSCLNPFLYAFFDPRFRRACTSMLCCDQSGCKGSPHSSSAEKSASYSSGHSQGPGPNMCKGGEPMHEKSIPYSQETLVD

T2: human APJ receptor (human, UniProt P35414 1-380)
T2 sequence (looked up): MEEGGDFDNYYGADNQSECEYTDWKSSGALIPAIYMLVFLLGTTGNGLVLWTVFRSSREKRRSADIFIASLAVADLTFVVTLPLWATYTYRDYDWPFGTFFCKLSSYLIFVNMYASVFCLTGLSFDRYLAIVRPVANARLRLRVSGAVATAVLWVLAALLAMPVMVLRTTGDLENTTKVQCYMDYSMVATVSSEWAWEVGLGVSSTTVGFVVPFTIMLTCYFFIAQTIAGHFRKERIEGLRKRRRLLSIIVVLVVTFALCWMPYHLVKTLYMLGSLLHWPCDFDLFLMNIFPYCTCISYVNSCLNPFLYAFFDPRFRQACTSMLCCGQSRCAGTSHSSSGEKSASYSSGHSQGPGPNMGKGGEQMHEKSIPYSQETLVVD


Key:
rat APJ receptor = target: T1, rat APJ receptor; assay: cell-based or functional assay
human APJ receptor = target: T2, human APJ receptor; assay: cell-based or functional assay

Binder	EC50 Rat APJ Receptor (rat APJ receptor) [nM]	EC50 Human APJ Receptor (human APJ receptor) [nM]
QRPRLSHKGXFPX ({Acetyl-NH}Q[hArg]Pr[NMeLeu]SHKG[Oic][pI-Phe]P[D-Bip]{COOH}) [apelin polypeptide SEQ ID NO: 53]	5.98	5.18
Ac-[Orn]F[hArg][hArg]Q[hArg][Oic][dR][Cha]SHKG[Oic][Nle][Phe(4-Cl)]-OH (SMILES CCCC[C@H](NC(=O)[C@@H]1C[C@@H]2CCCC[C@@H]2N1C(=O)CNC(=O)[C@H](CCCCN)NC(=O)[C@H](Cc1c[nH]cn1)NC(=O)[C@H](CO)NC(=O)[C@H](CC1CCCCC1)NC(=O)[C@@H](CCCNC(=N)N)NC(=O)[C@@H]1C[C@@H]2CCCC[C@@H]2N1C(=O)[C@H](CCCCNC(=N)N)NC(=O)[C@H](CCC(N)=O)NC(=O)[C@H](CCCCNC(=N)N)NC(=O)[C@H](CCCCNC(=N)N)NC(=O)[C@H](Cc1ccccc1)NC(=O)[C@H](CCCN)NC(C)=O)C(=O)N[C@@H](Cc1ccc(Cl)cc1)C(=O)O) [apelin polypeptide SEQ ID NO: 58]	5.32	1.17
Ac-[Orn]F[hArg][hArg]Q[hArg]P[hArg][Cha][rSer]HKG[Oic][Nle]P[Phe(4-Cl)]-OH (also: reduced amide bond at Ser10 (rSer)) [apelin polypeptide SEQ ID NO: 43]	1.83	0.393
Ac-[dQ][hArg]P[NMeR][Cha]SHKG[Oic][Nle]P[dPhe(4-Cl)]-OH (SMILES CCCC[C@H](NC(=O)[C@@H]1C[C@@H]2CCCC[C@@H]2N1C(=O)CNC(=O)[C@H](CCCCN)NC(=O)[C@H](Cc1c[nH]cn1)NC(=O)[C@H](CO)NC(=O)[C@H](CC1CCCCC1)NC(=O)[C@H](CCCNC(=N)N)N(C)C(=O)[C@@H]1CCCN1C(=O)[C@H](CCCCNC(=N)N)NC(=O)[C@@H](CCC(N)=O)NC(C)=O)C(=O)N1CCC[C@H]1C(=O)N[C@H](Cc1ccc(Cl)cc1)C(=O)O) [apelin polypeptide SEQ ID NO: 55]	145	31.6
Ac-RQRP[hArg][NMeL]SHKG[Oic][Phe(4-I)]P[dBip]-OH [apelin polypeptide SEQ ID NO: 51]	1.26	0.37
Ac-Q[dR]P[NMeR][Cha]SHKG[Oic][Nle][d1Nal]-OH (SMILES CCCC[C@H](NC(=O)[C@@H]1C[C@@H]2CCCC[C@@H]2N1C(=O)CNC(=O)[C@H](CCCCN)NC(=O)[C@H](Cc1c[nH]cn1)NC(=O)[C@H](CO)NC(=O)[C@H](CC1CCCCC1)NC(=O)[C@H](CCCNC(=N)N)N(C)C(=O)[C@@H]1CCCN1C(=O)[C@@H](CCCNC(=N)N)NC(=O)[C@H](CCC(N)=O)NC(C)=O)C(=O)N[C@H](Cc1cccc2ccccc12)C(=O)O) [apelin polypeptide SEQ ID NO: 54]	312	30.1
Ac-[Orn]F[hArg][hArg]Q[hArg]P[hArg][rCha]SHKG[Oic][Nle]P[Phe(4-Cl)]-OH (also: reduced amide bond (CH2NH) at residue 9) [apelin polypeptide SEQ ID NO: 42]	0.247	0.0449
Ac-[dR]Q[hArg]P[dR][NMeL]SHKG[Oic][Phe(4-I)]P[dBip]-OH [apelin polypeptide SEQ ID NO: 50]	1.68	1.43
Ac-[Orn]F[hArg][hArg]QRP[hArg][NMeL]SHKG[Oic][Phe(4-I)]P[dBip]-OH (SMILES CC(=O)N[C@@H](CCCN)C(=O)N[C@@H](Cc1ccccc1)C(=O)N[C@@H](CCCCNC(=N)N)C(=O)N[C@@H](CCCCNC(=N)N)C(=O)N[C@@H](CCC(N)=O)C(=O)N[C@@H](CCCNC(=N)N)C(=O)N1CCC[C@H]1C(=O)N[C@@H](CCCCNC(=N)N)C(=O)N(C)[C@@H](CC(C)C)C(=O)N[C@@H](CO)C(=O)N[C@@H](Cc1c[nH]cn1)C(=O)N[C@@H](CCCCN)C(=O)NCC(=O)N1[C@H](C(=O)N[C@@H](Cc2ccc(I)cc2)C(=O)N2CCC[C@H]2C(=O)N[C@H](Cc2ccc(-c3ccccc3)cc2)C(=O)O)C[C@@H]2CCCC[C@@H]21) [apelin polypeptide SEQ ID NO: 47]	0.63	0.416
Ac-[Orn]F[hArg][hArg]Q[hArg]P[hArg][Cha]SH[rLys]G[Oic][Nle]P[Phe(4-Cl)]-OH (also: reduced amide bond (CH2NH) at residue 12) [apelin polypeptide SEQ ID NO: 41]	0.817	0.151
Ac-[Orn]F[hArg][hArg]QRP[hArg][Cha]SHKGP[Nle][2Nal]-OH (SMILES CCCC[C@H](NC(=O)[C@@H]1CCCN1C(=O)CNC(=O)[C@H](CCCCN)NC(=O)[C@H](Cc1c[nH]cn1)NC(=O)[C@H](CO)NC(=O)[C@H](CC1CCCCC1)NC(=O)[C@H](CCCCNC(=N)N)NC(=O)[C@@H]1CCCN1C(=O)[C@H](CCCNC(=N)N)NC(=O)[C@H](CCC(N)=O)NC(=O)[C@H](CCCCNC(=N)N)NC(=O)[C@H](CCCCNC(=N)N)NC(=O)[C@H](Cc1ccccc1)NC(=O)[C@H](CCCN)NC(C)=O)C(=O)N[C@@H](Cc1ccc2ccccc2c1)C(=O)O) [apelin polypeptide SEQ ID NO: 49]	0.291	0.159
Ac-[Orn]F[hArg][hArg]Q[hArg]P[NMeR][Cha]SHKG[Oic][Nle][Phe(4-Cl)]-OH (SMILES CCCC[C@H](NC(=O)[C@@H]1C[C@@H]2CCCC[C@@H]2N1C(=O)CNC(=O)[C@H](CCCCN)NC(=O)[C@H](Cc1c[nH]cn1)NC(=O)[C@H](CO)NC(=O)[C@H](CC1CCCCC1)NC(=O)[C@H](CCCNC(=N)N)N(C)C(=O)[C@@H]1CCCN1C(=O)[C@H](CCCCNC(=N)N)NC(=O)[C@H](CCC(N)=O)NC(=O)[C@H](CCCCNC(=N)N)NC(=O)[C@H](CCCCNC(=N)N)NC(=O)[C@H](Cc1ccccc1)NC(=O)[C@H](CCCN)NC(C)=O)C(=O)N[C@@H](Cc1ccc(Cl)cc1)C(=O)O) [apelin polypeptide SEQ ID NO: 57]	0.787	0.412
Ac-[dR]QRP[hArg][NMeL]SHKG[Oic][Phe(4-I)]P[dBip]-OH (SMILES CC(=O)N[C@H](CCCNC(=N)N)C(=O)N[C@@H](CCC(N)=O)C(=O)N[C@@H](CCCNC(=N)N)C(=O)N1CCC[C@H]1C(=O)N[C@@H](CCCCNC(=N)N)C(=O)N(C)[C@@H](CC(C)C)C(=O)N[C@@H](CO)C(=O)N[C@@H](Cc1c[nH]cn1)C(=O)N[C@@H](CCCCN)C(=O)NCC(=O)N1[C@H](C(=O)N[C@@H](Cc2ccc(I)cc2)C(=O)N2CCC[C@H]2C(=O)N[C@H](Cc2ccc(-c3ccccc3)cc2)C(=O)O)C[C@@H]2CCCC[C@@H]21) [apelin polypeptide SEQ ID NO: 52]	1.14	0.623
Ac-[Orn]F[hArg][hArg]QRP[hArg][Cha]SHKGP[Nle][Phe(4-Cl)]-OH (SMILES CCCC[C@H](NC(=O)[C@@H]1CCCN1C(=O)CNC(=O)[C@H](CCCCN)NC(=O)[C@H](Cc1c[nH]cn1)NC(=O)[C@H](CO)NC(=O)[C@H](CC1CCCCC1)NC(=O)[C@H](CCCCNC(=N)N)NC(=O)[C@@H]1CCCN1C(=O)[C@H](CCCNC(=N)N)NC(=O)[C@H](CCC(N)=O)NC(=O)[C@H](CCCCNC(=N)N)NC(=O)[C@H](CCCCNC(=N)N)NC(=O)[C@H](Cc1ccccc1)NC(=O)[C@H](CCCN)NC(C)=O)C(=O)N[C@@H](Cc1ccc(Cl)cc1)C(=O)O) [apelin polypeptide SEQ ID NO: 48]	0.486	0.287
Ac-[Orn]F[hArg][hArg]Q[hArg]P[hArg][Cha][DrSer]HKG[Oic][Nle]P[Phe(4-Cl)]-OH (also: reduced amide bond at D-Ser10 (DrSer)) [apelin polypeptide SEQ ID NO: 44]	3.79	0.997
Ac-[Orn]F[hArg][hArg]QRP[hArg][Cha]SHKGP[Phe(4-I)]P[dBip]-OH (SMILES CC(=O)N[C@@H](CCCN)C(=O)N[C@@H](Cc1ccccc1)C(=O)N[C@@H](CCCCNC(=N)N)C(=O)N[C@@H](CCCCNC(=N)N)C(=O)N[C@@H](CCC(N)=O)C(=O)N[C@@H](CCCNC(=N)N)C(=O)N1CCC[C@H]1C(=O)N[C@@H](CCCCNC(=N)N)C(=O)N[C@@H](CC1CCCCC1)C(=O)N[C@@H](CO)C(=O)N[C@@H](Cc1c[nH]cn1)C(=O)N[C@@H](CCCCN)C(=O)NCC(=O)N1CCC[C@H]1C(=O)N[C@@H](Cc1ccc(I)cc1)C(=O)N1CCC[C@H]1C(=O)N[C@H](Cc1ccc(-c2ccccc2)cc1)C(=O)O) [apelin polypeptide SEQ ID NO: 46]	1.04	0.389
